In US10829561B2, “Antibodies targeting quiescin sulfhydryl oxidase (QSOX1) and uses of same” (Yeda Research and Development Co. Ltd., priority 2015, dated 2020):
Changes are numbered by the printed parent chain. “Also recorded” adds a separate entry of the source. Each block holds one molecule with its values, some of them ahead of it.

Tests used:
[1] = system: 4T1 murine mammary carcinoma; assay: Murine 4T1 breast cancer model, tumor volume; format: in vivo, BALB/c female mice; conditions: 8 mg/kg doxorubicin once a week, intraperitoneal, vs control mice
Description: 4T1 mCherry cells were suspended in Hanks' Balanced Salt Solution at a concentration of 2.5×10^6 cells/ml and mixed 1:1 with Cultrex® Basement Membrane Extract. 250,000 cells were injected into the mammary fat pad of 45 BALB/c female mice. Animals were divided into 5 groups containing 9 animals each (as depicted in Table 1B, below). Treatments were administered by intraperitoneal injection, beginning 3 days after cell injection. Tumor dimensions (x,y,z) were measured with a caliper twice a week. Tumor volumes were calculated according to: […]. Animals were weighed once a week. Twenty days post cell injection all animals were sacrificed by CO2 asphyxiation. Tumors and lungs were removed into 4% formaldehyde solution and prepared for histology.
The ability of an antibody inhibiting MmQSOX1 to control tumor growth and metastasis was evaluated in vivo in the 4T1 murine mammary carcinoma breast cancer model previously described [Pulaski and Ostrand-Rosenberg (2001) Mouse 4T1 breast tumor model. Curr. Protoc. Immunol. Chapter 20, Unit 20.2.]. Mice were injected with 4T1 cells together with matrigel, which aided in formation of a localized tumor, and then divided into five groups (as described in Table 1B, above). […] Tumor volumes were measured twice a week. Animals were sacrificed after 20 days, and their tumors and lungs were removed for evaluation.

MmQSOX1 = target: T1, MmQSOX1 (Mus musculus, UniProt Q8BND5); assay: Oxygen consumption assay of QSOX1 activity and inhibition (DTT substrate); format: biochemical; conditions: 10:1 molar ratio of antibody to enzyme
T1 construct: Recombinant MmQSOX1 is truncated at the carboxy-terminus and so migrates faster than endogenous secreted MmQSOX1; made in house
T1 sequence (Q8BND5 36-550 limits assumed): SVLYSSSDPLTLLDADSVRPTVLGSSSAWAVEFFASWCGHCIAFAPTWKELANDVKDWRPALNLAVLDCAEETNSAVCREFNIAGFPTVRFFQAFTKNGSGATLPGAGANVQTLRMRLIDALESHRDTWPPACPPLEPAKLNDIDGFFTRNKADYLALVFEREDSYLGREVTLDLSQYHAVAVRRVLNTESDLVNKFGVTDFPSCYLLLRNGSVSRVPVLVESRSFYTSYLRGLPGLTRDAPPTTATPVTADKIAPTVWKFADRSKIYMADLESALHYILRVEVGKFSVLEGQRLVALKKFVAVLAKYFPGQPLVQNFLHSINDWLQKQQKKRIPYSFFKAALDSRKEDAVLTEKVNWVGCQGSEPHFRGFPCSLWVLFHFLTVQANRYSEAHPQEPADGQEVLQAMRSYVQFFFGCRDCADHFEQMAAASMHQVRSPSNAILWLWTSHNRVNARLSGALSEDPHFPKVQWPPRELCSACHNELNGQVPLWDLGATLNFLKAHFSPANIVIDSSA

[2] = system: mouse embryonic fibroblasts (MEFs); assay: Epithelial cell adhesion to mouse fibroblast monolayer; format: cell-based; conditions: 250 nM or 1 μM antibody; HEK 293T adhering cells
Description: (§1) The assays were conducted essentially as previously described [Ilani T. et al. (2013), supra]. Instead of human fibroblasts, mouse fibroblasts were grown for three days in the presence of various antibodies. HEK 293T cells were used as adhering cells.
(§2) QSOX1 and laminin are secreted from quiescent fibroblasts into the ECM, where QSOX1 promotes laminin incorporation, and consequently the adherence of epithelial cells to the fibroblast monolayer. Thus, intact laminin networks in the ECM and cell adherence indicate functional QSOX1 activity in the ECM [Ilani T. et al. (2013), supra]. Inventors first verified that MmQSOX1 is secreted from confluent mouse embryonic fibroblasts (MEFs) (FIG. 4A). Next, extracellular laminin secreted by MEFs grown for three days in the presence of MAb492.1, MAb316.1, or MAb492gen was stained. […] A quantitative assay of epithelial cell adhesion to MEF monolayers was performed next. Fluorescently labeled epithelial cells were added to MEFs grown in the absence or presence of the antibodies, and adherent cells were quantified.

[3] = target: T2, MmQSOX1 TLPG(138-141)VFPV mutant (Mus musculus, UniProt Q8BND5, G141V/L139F/T138V); assay: Oxygen consumption assay, MmQSOX1 mutant mimicking HsQSOX1; format: biochemical; conditions: 250 nM MAb492.1, 200 μM DTT
T2 construct: made in house
T2 sequence (Q8BND5 36-550 T138V/L139F/G141V limits assumed): T1 sequence (Q8BND5 36-550 limits assumed) with T103V, L104F, G106V
Description: (§3) Reactions were initiated by DTT injection, and oxygen consumption rates were obtained from initial slopes. […] Measurements were performed 3 times, and resulting rates were averaged. For each mutant, the rate in the presence of inhibitory antibody was divided by the rate in the absence of antibody to get percent activity.
(§4) The first mutant, A116P, was inhibited by about 60% (FIG. 2D), and the second mutant, TLPG(138-141)VFPV, by about 50%.

MmQSOX1 A116P mutant = target: T3, MmQSOX1 A116P mutant (Mus musculus, UniProt Q8BND5); assay: as above; format: biochemical; conditions: 250 nM MAb492.1, 200 μM DTT
T3 construct: made in house
T3 sequence (Q8BND5 36-550 A119P limits assumed): T1 sequence (Q8BND5 36-550 limits assumed) with A84P
Description: as §3, §4

[4] = system: mouse embryonic fibroblasts (MEFs); assay: Laminin immunostaining in mouse fibroblast cultures; format: cell-based; conditions: MEFs grown for three days in the presence of antibody
Description: as §1, §2

HsQSOX1 = target: T4, HsQSOX1 (Homo sapiens, UniProt O00391); conditions: Grossman I. et al. (2013); cited from earlier work
T4 construct: made in house
T4 sequence (O00391 33-546 limits assumed): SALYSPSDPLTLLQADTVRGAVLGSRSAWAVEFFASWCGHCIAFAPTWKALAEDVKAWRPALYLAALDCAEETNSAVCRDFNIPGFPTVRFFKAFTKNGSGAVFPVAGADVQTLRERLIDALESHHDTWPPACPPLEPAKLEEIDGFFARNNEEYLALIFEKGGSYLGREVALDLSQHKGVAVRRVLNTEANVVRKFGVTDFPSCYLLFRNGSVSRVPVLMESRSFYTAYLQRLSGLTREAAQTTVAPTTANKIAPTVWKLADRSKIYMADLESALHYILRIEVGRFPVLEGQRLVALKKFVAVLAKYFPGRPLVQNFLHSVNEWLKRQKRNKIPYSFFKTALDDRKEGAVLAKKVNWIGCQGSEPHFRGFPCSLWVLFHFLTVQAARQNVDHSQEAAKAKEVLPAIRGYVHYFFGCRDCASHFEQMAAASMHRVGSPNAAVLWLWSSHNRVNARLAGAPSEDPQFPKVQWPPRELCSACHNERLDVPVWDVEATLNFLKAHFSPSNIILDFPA

CpQSOX1 = target: T5, CpQSOX1 (Cavia porcellus, UniProt O08841); assay: Oxygen consumption assay of QSOX1 activity and inhibition (DTT substrate); format: biochemical; conditions: even at 1 μM antibody, 10:1 molar ratio of antibody to enzyme
T5 construct: The CpQSOX1 protein spans residues 34-547 of Cavia porcellus QSOX1; His-tag with thrombin site (inferred from the pET-15b vector, NdeI/BamHI cloning); made in house; host or cells: E. coli
T5 sequence (O08841 34-547): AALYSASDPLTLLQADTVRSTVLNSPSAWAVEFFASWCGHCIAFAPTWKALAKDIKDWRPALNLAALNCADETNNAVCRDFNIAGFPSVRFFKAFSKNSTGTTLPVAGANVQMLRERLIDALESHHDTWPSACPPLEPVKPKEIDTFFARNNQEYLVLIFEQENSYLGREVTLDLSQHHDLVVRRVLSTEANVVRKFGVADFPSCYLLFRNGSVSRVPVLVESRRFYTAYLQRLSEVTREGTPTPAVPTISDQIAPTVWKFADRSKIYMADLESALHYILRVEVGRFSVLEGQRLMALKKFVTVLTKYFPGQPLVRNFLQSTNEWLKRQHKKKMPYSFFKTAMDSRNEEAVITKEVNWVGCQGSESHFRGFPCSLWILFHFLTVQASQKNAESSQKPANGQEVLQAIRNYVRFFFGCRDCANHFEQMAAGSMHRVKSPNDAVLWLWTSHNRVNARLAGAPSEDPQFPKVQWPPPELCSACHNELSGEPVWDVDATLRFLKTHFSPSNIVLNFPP
Description: as §3
(§5) Three mammalian QSOX1 enzymes, from common experimental organisms and having 78-79% sequence identity with HsQSOX1, were chosen: Mus musculus QSOX1 (MmQSOX1), Rattus norvegicus QSOX1 (RnQSOX1), and Cavia porcellus (CpQSOX1). Enzyme activity was assessed in an oxygen consumption assay on the model substrate dithiothreitol (DTT).

RnQSOX1 = target: T6, RnQSOX1 (Rattus norvegicus, UniProt Q6IUU3); assay: as above; format: biochemical; conditions: even at 1 μM antibody, 10:1 molar ratio of antibody to enzyme
T6 construct: made in house
T6 sequence (Q6IUU3 33-750): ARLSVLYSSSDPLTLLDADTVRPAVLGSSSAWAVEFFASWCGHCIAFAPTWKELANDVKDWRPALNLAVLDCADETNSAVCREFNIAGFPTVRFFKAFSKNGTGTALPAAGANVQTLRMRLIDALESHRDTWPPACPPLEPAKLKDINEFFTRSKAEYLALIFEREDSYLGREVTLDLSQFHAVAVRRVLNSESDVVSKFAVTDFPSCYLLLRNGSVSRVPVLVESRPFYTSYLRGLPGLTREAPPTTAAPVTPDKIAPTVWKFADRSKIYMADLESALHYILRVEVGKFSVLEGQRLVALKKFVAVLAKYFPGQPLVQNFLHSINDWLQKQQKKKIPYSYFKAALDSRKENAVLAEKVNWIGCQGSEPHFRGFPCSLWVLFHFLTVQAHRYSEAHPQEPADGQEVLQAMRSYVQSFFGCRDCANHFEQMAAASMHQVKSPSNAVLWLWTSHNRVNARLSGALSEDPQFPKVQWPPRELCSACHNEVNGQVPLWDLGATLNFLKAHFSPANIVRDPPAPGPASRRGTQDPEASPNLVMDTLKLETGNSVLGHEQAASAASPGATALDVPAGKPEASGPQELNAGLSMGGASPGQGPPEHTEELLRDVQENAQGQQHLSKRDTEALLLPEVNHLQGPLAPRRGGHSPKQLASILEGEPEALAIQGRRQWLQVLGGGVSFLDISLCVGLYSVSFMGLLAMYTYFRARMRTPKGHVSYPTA
Description: as §3, §5

Molecule: COc1cccc2c1C(=O)c1c(O)c3c(c(O)c1C2=O)C[C@@](O)(C(=O)CO)C[C@@H]3O[C@H]1C[C@H](N)[C@H](O)[C@H](C)O1 [doxorubicin, reference compound]
- Tumor volume [1]: smaller tumors than control mice

- Inhibition of MmQSOX1 TLPG(138-141)VFPV mutant [3]: about 50%
- Inhibition of MmQSOX1 A116P mutant (MmQSOX1 A116P mutant): about 60%
- Effect on CpQSOX1 activity (CpQSOX1): no effect
- Effect on RnQSOX1 activity (RnQSOX1): no effect
B1: MAb492.1: previously published inhibitory monoclonal antibody blocking the Trx CXXC redox-active site of human QSOX1 (antibody, V domains shown)
VL: DVVMTQTHKFMSTSVGDRVSITCKASQDVSTAVAWYQQKSGQSPKLLIHSASYRYTGVPDRFTGSGSGTDFTFTISSVQAEDLAVYYCQQHYSIPLTFGAGTKLELK
VH: QVQLKQSGPGLVAPSQSLSITCTVSGFSLTGYGVNWVRQSPGKGLEWLGMIWGDGRTDYKSALKSRLSITKDNSKSQVFLKMNSLQTDDTARYFCASDYYGSGSFAYWGQGTLVTVSA
- Inhibition of MmQSOX1 at 1 μM antibody (MmQSOX1): no effect; also recorded: No inhibition at 1 μM
- Epithelial cell adherence to MEF monolayer [2]: did not affect
- Laminin network in ECM [4]: did not affect
- Concentration inhibiting HsQSOX1 activity in vitro and in cell culture (HsQSOX1): near-stoichiometric concentration
